From publication PMC5780041, “Endosomal Rab cycles regulate Parkin-mediated mitophagy” (eLife, 2018) come the findings set out here.

Assay [1] has as its target T1, S65 phosphorylated ubiquitin produced in bacterial cells (human, UniProt P0CG48 1-76, S65 phosphorylated).
T1 construct: human ubiquitin, the 76-residue mature product, from pET21a(+)/1xUb; Same construct as m13, phosphorylated in the bacteria by co-expressed membrane-anchored TcPINK1; also called monomeric phosphorylated ubiquitin; source: Superdex 75)
The assay can be described thus: ITC; 18 injections of 2 μl of 300 μM ubiquitin or phosphorylated ubiquitin into 200 μl of 30 μM GST-mRABGEF1 in the cell; 25°C; TBS buffer; single site binding model. The settings on record: both partners purified.

The target in assay [2] is T2, 1x human ubiquitin (C-terminal His-tagged) (human, UniProt P0CG48 1-76).
T2 construct: human ubiquitin, the 76-residue mature product (primers from the ATG to the codons of the last two glycines); In pET21a(+) between BamHI and XhoI; also called 1x ubiquitin; 1 × Ub; source: E. coli BL21-CodonPlus(DE3)-RIL, purified (Ni-NTA; for ITC also Superdex 75)
The assay is described as above. The settings on record: both partners purified.

B1: GST-tagged mouse RABGEF1 (WT) 1-74aa (domain or fragment)
chain: not shown
notes: Expressed with 50 μM ZnCl2 in the medium; also called GST-mRABGEF1 (WT); GST-mRABGEF1 WT; source: E. coli BL21-CodonPlus(DE3)-RIL, purified (glutathione-Sepharose 4B; for ITC also Superdex 75); not shown: GST, N-terminal, kept
For the molecule B1, the results for the Kd in assay [1] and in assay [2] were 5.6 µM and 2.2 µM, respectively.
